Among the data in patent WO1992011383A1 are Kd values, retold here.

The target in the assay is recombinant human TNF-alpha (human) (UniProt P01375). Description: Scatchard analysis in solution: 125I-TNF and unlabelled TNF, antibody captured on anti-IgG agarose beads.
UniProt P01375, sequence (P01375 77-233 limits assumed): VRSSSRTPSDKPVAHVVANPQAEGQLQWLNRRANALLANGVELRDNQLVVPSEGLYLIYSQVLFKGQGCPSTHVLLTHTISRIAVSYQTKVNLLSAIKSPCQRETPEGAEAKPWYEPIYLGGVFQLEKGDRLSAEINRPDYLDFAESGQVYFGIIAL

The Kd is the free concentration of one partner at which half of the binding sites on the other are occupied at equilibrium, for simple one-to-one binding. Take “CDP571 (CDR-grafted CB0010, gEU light chain / 2hEUg heavy chain) (antibody)”: the Kd came out at 0.14 nM.
